Several values for one entry are separate records, joined by “and”; a condition that tells them apart may be missing. Identical values can stand only once. Like-named read-outs stand apart in the source and are kept apart here.
Key:
R5 HIV-2 SLRHC = test: Inhibition of replication in PBMC cultures, RT activity readout: HIV-2 SLRHC; assay type: cell-based
Description: (§1) Viruses: All virus isolates were grown and titered exclusively in stimulated PBMC as described previously. […] The HIV-2 isolates used in this study have been previously described (Owen, S. M., Ellenberger, D., Rayfield, M., Wiktor, S., Michel, P., Grieco, M. H., Gao, F., Hahn, B. H., and Lai, R. B. 1998. Genetically Divergent Strains of Human Immunodeficiency Virus Type 2 Use Multiple Coreceptors for Entry. J Virol 72:5425-5432) and were obtained from the NIH AIDS Research and Reference Reagent Program.
(§2) PA14 (Lot # DF-021204) was produced for reagent use in the Research & Development laboratories of Progenics Pharmaceuticals Inc.
(§3) Inhibition of HIV-1 and HIV-2 replication in PBMC cultures: PBMC were isolated from 34 healthy blood donors with Ficoll-Hypaque (all media from Cellgro, Herndon, Va.) and depleted of CD8+ cells using RosetteSep CD8 depletion cocktail (StemCell Technologies) according to the manufacturer's instructions. Equal numbers of cells from each donor were then separately stimulated with 5 ug phytohemagglutinin/ml (Sigma, St. Louis, Mo.) or with surface-immobilized anti-CD3 antibody OKT3 in RPMI 1640 medium containing 10% fetal calf serum, 100 Units of interleukin-2/ml (NIH AIDS Research and Reference Reagent Program), glutamine, and antibiotics (PBMC culture medium) as previously described. After 72 hours, equal numbers of PBMC stimulated by one of these two methods from each donor were combined for use in infection assays as follows. […] The virus inoculum was adjusted to 400 to 2,000 times the TCID50 per ml in PBMC culture medium, and a 50-ul aliquot was added to each culture. The inhibitory doses refer to the concentrations of the agents present at this point in the culture, when virus, cells, and inhibitors were all present at their final concentrations. Reverse Transcriptase (RT) activity was measured on Day 7 post infection (pi) for HIV-1 and Day 10 pi for HIV-2 by the Reverse Transcriptase Assay, Colorimetric kit, #11 468 120 910, Roche (Switzerland) according to the manufacturer's instructions with the following exception: neither ultracentrifugation nor PEG precipitation of the culture supernatants was performed before viral lysis.
(§4) The inhibition data were analyzed using GraphPad Prism software (GraphPad Software, San Diego, Calif.). A 4-parameter logistic fit was used calculate the concentration of inhibitor that afforded a 50% and a 90% reduction in RT activity. […] The % inhibitions where best-fit curve reached a top plateau, also as calculated by GraphPad Prism software, are reported as well as maximum percent inhibition (MPI). […] Inhibition curves with a poor sigmoid fit (R^2<0.7) were excluded from data analysis.

[1] = Phase 1b clinical trial: pharmacokinetics (serum PRO 140 by ELISA); settings: non-compartmental analysis, HIV-infected subjects
HIV-1 JR-FL = test: Previous studies (300-TD-028): HIV-1 replication in PBMC quantitated by p24 ELISA, JR-FL; assay type: cell-based
Description: The EC values were measured by p24 ELISA in previous studies, according to published methods. Because the p24 ELISA cannot efficiently quantitate p24 from the HIV-2 isolates used in this study, a commercial ELISA that measures reverse transcriptase was chosen as a readout for both the HIV-2 and HIV-1 infection assays in the present study.

CCR5 lymphocytes [2] = assay type: in vivo, human
Description: Whole blood specimens were combined separately with the indicated phycoerythrin-labeled anti-CCR5 antibodies or with appropriate isotype-control antibodies. Erythocytes were lysed and leukocytes were stabilized using the ImmunoPrep Reagent System (Beckman Coulter), and the cells were analyzed on a TQ Prep™ flow cytometry workstation (Beckman Coulter). Data were expressed as the percent of CCR5 cells relative to all cells gated in the analysis.
For up to 60 days post-treatment, at the times indicated in FIG. 6, blood was collected and analyzed for CCR5 lymphocyte levels.
Background binding of isotype control antibodies was unchanged.

R5X4 HIV-2 77618 = test: Inhibition of replication in PBMC cultures, RT activity readout: HIV-2 77618; assay type: cell-based
Description: as §1, §2, §3, §4

[3] = tested on: viruses in PRO 140-treated subjects; test: Phase 1b: virus susceptibility of subjects' viruses (PhenoSense Assay); assay type: cell-based, HIV-1
From the text: A non-limiting example of a widely used phenotypic HIV drug resistance test is the PhenoSense™ HIV assay, which measures the sensitivity of a virus to antiretroviral drugs.

CCR5 chemokine signaling = test: RANTES-induced calcium mobilization in L1.2-CCR5 cells vs HIV-1JR-FL replication in PBMC (FIG. 4); assay type: cell-based, human; settings: FIG. 4 legend, result in words
From the text: Similar results were obtained for MIP-1α and MIP-1β.

R5 HIV-1 JR-FL = test: Inhibition of replication in PBMC cultures, RT activity readout: HIV-1 JR-FL; assay type: cell-based
Description: as §1, §2, §3, §4

HIV-1 = settings: Table 2 comparison; cited from earlier work
CCR5 lymphocytes [4] = test: Phase 1b clinical trial: coating of CCR5 lymphocytes (flow cytometry ex vivo)
[5] = human, in vivo
Description: Individuals were treated in sequential, dose-rising cohorts of 5 subjects (4 active and 1 placebo) each and evaluated for up to 120 days post-treatment. […] Safety assessments consisted of monitoring the following: vital signs (blood pressure, pulse, temperature, etc; hematology (hemoglobin, hematocrit, leukocytes, platelets, etc.); serum chemistries (AST/ALT, alkaline phosphatase, BUN, creatinine, etc.); urinalysis (pH, specific gravity, protein, glucose, leukocytes, etc.); and ECGs (12-lead).

[6] = individual assays (Source), previous study, p24 ELISA
[7] = previous studies n = 33, median
[8] = HIV-1 JR-FL, R5, median, current study n = 5
[9] = JR-FL, current study n = 5, mean

B1: PRO 140: humanized IgG4,κ anti-CCR5 monoclonal antibody, humanized version of murine mAb PA14 (antibody, chains of the INN, looked up, V domains shown)
VH: EVQLVESGGGLVKPGGSLRLSCAASGYTFSNYWIGWVRQAPGKGLEWIGDIYPGGNYIRNNEKFKDKTTLSADTSKNTAYLQMNSLKTEDTAVYYCGSSFGSNYVFAWFTYWGQGTLVTVSS
VL: DIVMTQSPLSLPVTPGEPASISCRSSQRLLSSYGHTYLHWYLQKPGQSPQLLIYEVSNRFSGVPDRFSGSGSGTDFTLKISRVEAEDVGVYYCSQSTHVPLTFGQGTKVEIK
EC50 (median) (R5 HIV-2 SLRHC; HIV-2 SLRHC, R5): 0.57 µg/mL
EC90 (median) (R5 HIV-2 SLRHC; HIV-2 SLRHC, R5): 21 µg/mL
MPI (maximum percent inhibition) (R5 HIV-2 SLRHC; R5 HIV-2 SLRHC, individual assays (Source)): 104% and 135% and 127% and 150%
MPI, Median (R5 HIV-2 SLRHC; R5 HIV-2 SLRHC, median of assays): 135%
Terminal half life [1]: approximately 4 d
EC50 (HIV-1 JR-FL; [6]): 0.37 µg/mL and 0.003 µg/mL and 0.03 µg/mL and 0.28 µg/mL and 0.13 µg/mL and 0.05 µg/mL and 0.97 µg/mL and 0.39 µg/mL and <0.001 µg/mL and 0.001 µg/mL and 1.8 µg/mL and 0.24 µg/mL and 0.14 µg/mL and 0.58 µg/mL and 0.45 µg/mL and 0.06 µg/mL and 0.72 µg/mL and 1.9 µg/mL and 0.61 µg/mL and 0.69 µg/mL and 0.12 µg/mL and 0.02 µg/mL and 2.7 µg/mL and 0.48 µg/mL and 0.04 µg/mL and <0.1 µg/mL and 0.43 µg/mL
EC90 (HIV-1 JR-FL; [6]): 3.4 µg/mL and 0.01 µg/mL and 18 µg/mL and 5.4 µg/mL and 2.2 µg/mL and 3.1 µg/mL and 12 µg/mL and 0.02 µg/mL and <0.001 µg/mL and 0.13 µg/mL and 0.52 µg/mL and >50 µg/mL and 0.93 µg/mL and 5.8 µg/mL and 8.1 µg/mL and 8.2 µg/mL and 2.1 µg/mL and 10 µg/mL and 11 µg/mL and 0.22 µg/mL and 3.7 µg/mL and 22 µg/mL and 1.2 µg/mL and 34 µg/mL
EC50 (mean) (HIV-1 JR-FL; previous studies n = 33, mean): <0.41 µg/mL
EC90 (mean) (HIV-1 JR-FL; previous studies n = 33, mean): >10 µg/mL
EC50 (median) (HIV-1 JR-FL; [7]): 0.13 µg/mL
EC90 (median) (HIV-1 JR-FL; [7]): 3.4 µg/mL
time cells remain partially coated (CCR5 lymphocytes [2]; single 2 mg/kg dose): > 4 weeks
time cells remain partially coated (CCR5 lymphocytes [2]; single 5 mg/kg dose): > 60 days
EC50 (median) (R5X4 HIV-2 77618; HIV-2 77618, R5X4): >100 µg/mL
EC90 (median) (R5X4 HIV-2 77618; HIV-2 77618, R5X4): >100 µg/mL
MPI: Maximum percent inhibition as determined from the plateau of the sigmoidal curve fit (R5X4 HIV-2 77618; Virus: R5X4 HIV-2 77618, individual experiments (Source)): 6% and −2%
MPI, Median (R5X4 HIV-2 77618; Virus: R5X4 HIV-2 77618, median of experiments): 2%
change in rIC50 post-treatment ([3]; all subjects): Less than 2 fold
Mean Maximum Percent Inhibition (MPI) ([3]; baseline): 99% (range: 93-100%)
Mean rIC50 ([3]; baseline): 2.0 (range: 0.83-5.1)
Mean MPI ([3]; post-treatment): 99% (range: 93-100%)
Mean rIC50 ([3]; post-treatment): 2.1 (range: 0.98-4.71)
effect on HIV-1 vs chemokine signaling (CCR5 chemokine signaling): blocks HIV-1 but not chemokine signaling
EC50 (median) (R5 HIV-1 JR-FL; [8]): 0.09 µg/mL
EC90 (median) (R5 HIV-1 JR-FL; [8]): 7.0 µg/mL
EC50 (mean) (R5 HIV-1 JR-FL; [9]): <0.97 µg/mL
EC90 (mean) (R5 HIV-1 JR-FL; [9]): 22 µg/mL
MPI (maximum percent inhibition) (R5 HIV-1 JR-FL; R5 HIV-1 JR-FL, individual assays (Source)): 100% and 103% and 101% and 110%
MPI, Median (R5 HIV-1 JR-FL; R5 HIV-1 JR-FL, median of assays with R^2 >= 0.7): 102%
Development of Resistance In Vitro (HIV-1): None at 40 weeks
depletion of CCR5+ lymphocytes (CCR5 lymphocytes [4]): No depletion of CCR5+ lymphocytes
dose-limiting toxicity [5]: no dose-limiting toxicity

Reference: US20090074766A1, “Methods of inhibiting HIV-2 infection” (priority 2007, published 2009)
